Results taken from US7455837B2, “Compositions and methods for the diagnosis and treatment of sepsis” (The Regents of the University of Michigan, priority 2002, dated 2008).

What was measured:
mouse neutrophils [1] = experiment: Chemotaxis assay of mouse neutrophils to mC5a; type: cell-based
Description: Five hours later, mice were killed and the peritoneal cavity was lavaged four times with 10 mL DPBS. Fluids were centrifuged and residual red blood cells removed by a hypotonic lysis step. Remaining peritoneal cells were washed and resuspended in HBSS.
After neutrophil isolation, cells were fluorescein-labeled with BCECF (2′,7′-bis [2-carboxyethyl]-5-[and 6]-carboxy-fluorescein acetoxymethyl ester) (Molecular Probes, Eugene, Oreg.). Labeled neutrophils (5×10^6 cells/mL) were then loaded into the upper chambers of 96-well minichambers (NeuroProbe, Cabin John, Md.). […] The upper and lower chambers were separated by a polycarbonate membrane of 3 μm porosity. Minichambers were incubated for 60 min at 37° C. The number of cells migrating through polycarbonate filters to the lower surface was measured by cytofluorometry (Cytofluor II, PerSeptive Biosystems, Framingham, Mass.). For each measurement, quadruplicate samples were used.

mouse C5a receptor = target: T1, mouse C5a receptor (mouse, UniProt P30993 1-351); experiment: competition of unlabeled mC5a with 100 pM 125I-mC5a on mouse peritoneal neutrophils, 20 min at 4 C
T1 construct: whole, on cells
T1 sequence (looked up): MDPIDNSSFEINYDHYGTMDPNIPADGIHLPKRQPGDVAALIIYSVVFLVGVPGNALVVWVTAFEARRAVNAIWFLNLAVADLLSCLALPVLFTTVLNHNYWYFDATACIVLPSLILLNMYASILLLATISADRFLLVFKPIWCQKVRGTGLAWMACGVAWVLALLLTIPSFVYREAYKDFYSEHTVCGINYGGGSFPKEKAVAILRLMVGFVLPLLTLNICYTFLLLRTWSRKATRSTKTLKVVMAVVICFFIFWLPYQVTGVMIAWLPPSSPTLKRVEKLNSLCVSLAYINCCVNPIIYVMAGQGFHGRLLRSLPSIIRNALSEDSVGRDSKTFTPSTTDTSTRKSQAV
Description: Isolated neutrophils were incubated for 1 h at 4° C. in binding buffer (HBSS without Ca^2+ and containing 1% BSA) to block nonspecific surface binding sites. […] After an incubation interval of 20 min at 4° C., cell suspensions were layered over 20% sucrose and sedimented by centrifugation at 11,000 g (Beckman Microfuge B, Palo Alto, Calif.) for 2 min. […] Binding affinities (K_d values) of C5a were calculated in the conventional manner (Chenoweth et al., (1978) *Proc. Natl. Acad. Sci. USA* 75,3943-3947). […]
Recent reports have described CSaRa binding affinities to rat and human neutrophils (Wong et al., (1998) *J. Med. Chem.* 41,3417-3425; Short et al., (1999) *Br. J. Pharmacol.* 128,511-514). To assess whether C5aRa also binds to mouse neutrophils, competitive binding studies using C5aRa and mC5a were undertaken.

[2] = target: T2, C5aR on mouse peritoneal neutrophils (Mus musculus, UniProt P30993); experiment: Competitive binding of 125I-mC5a to mouse peritoneal neutrophils; details: recombinant protein
T2 construct: Mice were injected i.p. with 2.5 mL sterile 3% thioglycolate medium (DIFCO Laboratories, Detroit, Mich.) for harvesting of mouse neutrophils; endogenous in cells; host or cells: mouse peritoneal neutrophils (thioglycolate-elicited, whole cells)
T2 sequence (P30993 1-351): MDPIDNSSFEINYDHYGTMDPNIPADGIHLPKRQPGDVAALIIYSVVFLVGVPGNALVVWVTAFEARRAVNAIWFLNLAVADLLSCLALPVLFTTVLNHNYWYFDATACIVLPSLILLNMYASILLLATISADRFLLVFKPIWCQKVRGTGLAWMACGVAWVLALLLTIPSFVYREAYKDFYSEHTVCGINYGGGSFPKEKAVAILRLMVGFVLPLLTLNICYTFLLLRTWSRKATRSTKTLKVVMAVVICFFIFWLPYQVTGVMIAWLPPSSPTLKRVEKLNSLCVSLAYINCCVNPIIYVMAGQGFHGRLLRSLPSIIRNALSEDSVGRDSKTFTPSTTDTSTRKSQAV
Description: (§1) Mice were injected i.p. with 2.5 mL sterile 3% thioglycolate medium (DIFCO Laboratories, Detroit, Mich.) for harvesting of mouse neutrophils (Ajuebor et al., (1999) J. Immunol. 162,1685-1691). Five hours later, mice were killed and the peritoneal cavity was lavaged four times with 10 mL DPBS. Fluids were centrifuged and residual red blood cells removed by a hypotonic lysis step. Remaining peritoneal cells were washed and resuspended in HBSS. Aliquots of cells were stained with Diff-Quik Stain (Dade International, Miami, Fla.) and examined for neutrophil purity (>95%) and viability (>97%) by trypan blue exclusion (Fildes et al., (1998) J. Trauma 45,479-484).
For binding studies, mC5a was labeled with […], using the chloramine T-based protocol (Bennett et al., (1997) Methods Enzymol. 288,134-148) with gentle oxidation, which preserves chemotactic activity of mC5a for mouse neutrophils. Isolated neutrophils were incubated for 1 h at 4° C. in binding buffer (HBSS without Ca^2+ and containing 1% BSA) to block nonspecific surface binding sites. […] Binding affinities (Kd values) of C5a were calculated in the conventional manner (Chenoweth et al., (1978) Proc. Natl. Acad. Sci. USA 75,3943-3947). […]

mouse neutrophils [3] = experiment: Neutrophil oxidative burst (H2O2 generation, PMA-stimulated); type: cell-based
Description: as §1
H2O2 generation was determined in the presence of 1 mM sodium azide. As indicated, mouse neutrophils (2×10^6 cells/mL) were pretreated with mC5a (10 nM) for 60 min at 37° C. in the presence or absence of different amounts of C5aRa. To stimulate neutrophils, cells were then incubated with PMA (25 ng/mL) for an additional 10 min. The reaction was stopped by addition of 0.1 mL trichloroacetic acid (50% v/v), then ferrous ammonium sulfate (1.5 mM) and potassium thiocyanate (0.25 M) were added to supernatant fluids. The absorbance of the ferrithiocyanate complex was measured at 480 nm and compared with a standard curve generated from dilutions of reference solutions of H2O2.

## ^125I-C5aRa: C5aRa labeled with 125I by the chloramine T method (FXPXWR; non-natural residues; cyclised or stapled) [reference compound]
Mouse neutrophils [1]; 10 nM 125I-C5aRa, mC5a 1-100 nM
  chemotactic response to mC5a in presence of radiolabeled antagonist: virtually completely suppressed

B1: recombinant mouse C5a (ligand, UniProt P06684 679-755, looked up)
chain: NLHLLRQKIEEQAAKYKHSVPKKCCYDGARVNFYETCEERVARVTIGPLCIRAFNECCTIANKIRKESPHKPVQLGR
modifications: 125I label (chloramine T) on the tracer form only; the competitor was unlabeled
notes: domain: C5a; Expressed in E. coli BL21(DE3) pLysS from pET 15b (NdeI/BamHI) and purified over a Ni2+ column; C5a is only a fragment of it; also called mC5a; recombinant mouse (m) C5a
Mouse C5a receptor
  Kd: ~3 nM

B2: mC5a: recombinant mouse C5a expressed in BL21 (DE3) pLysS cells, purified over a Ni2+ column (protein)
chain: NLHLLRQKIEEQAAKYKHSVPKKCCYDGARVNFYETCEERVARVTIGPLCIRAFNECCTIANKIRKESPHKPVQLGR
[2]
  binding to mouse neutrophils: high-affinity binding
Mouse neutrophils [1]; 10 nM
  chemotactic response evoked by the substance alone: robust chemotactic response
Mouse neutrophils [1]; recombinant protein
  biological (chemotactic) activity: had biological (chemotactic) activity
Mouse neutrophils [3]; 10 nM alone, 60 min at 37° C., no PMA
  basal H2O2 production vs ctrl cells: neither mC5a alone nor C5aRa alone significantly altered
Mouse neutrophils [3]; 10 nM mC5a 60 min, absence of C5aRa, then PMA 25 ng/mL
  PMA-stimulated H2O2 production after exposure to mC5a: completely abolished
